The nature of the data set: soluble on expression in E. coli; label from the status in PepcDB or PDB records.
As for “MKKFALATIFALATTSAFAGFNGNNSQGGFQQAAPAAISVKQALSAADNSMITLVGNITQQIDDDEFWFTDGTGQIKIEIKKRVWNGLNVDSKDKVKIYGKLDNEVFEKAELDVLRIEKAE”, the “soluble on expression in E. coli” value is “not soluble”.

Turning to “MKKHIKNLFLLAAICLTVACKEQLYTGLTEKEANQMQALLLSNDVNVSKEMDKSGNMTLSVEKEDFVRAITILNNNGFPKKKFADIEVIFPPSQLVASPSQENAKINYLKEQDIERLLSKIPGVIDCSVSLNVNNNESQPSSAAVLVISSPEVNLAPSVIQIKNLVKNSVDDLKLENISVVIKSSSGQDG”, the “soluble on expression in E. coli” value is recorded as “not soluble”.

Consider “MKKHVMLVKPFSLEDEKDSENTPPNLIQRILSLFKNVRPGSDLTNFQLPPQMNLARSQLQCYGEIVYSFDGHDLLGECSRRDKPIERMKAMVTWYISTLRPLIFGLAPYNPVIGETHHVSNGHINVLAEQISHHPPVSALHATHEKENVDVLLCQYFTPKFRGAYVDVEVKGKRVVKLLNHKETYEMNQPKLLMTFLPAMGAHWAGKIVIKCPETGLGAELQLLSDSFLSRFTGNNKRAIKGKIFESSSRKQLYEISGHWDRTVTAKNTKTGQLEVIYKASENIAKLKTPIVENLQEVSESESAVVWGEVSEGIVTNNWEKAREAKRDVEEKQRESLRKRKASGQSWIPKHFSVARTGKDWDCVPLQPTVPRAPIVVPL”, for which the “soluble on expression in E. coli” value is “soluble”.

Take “MKKIILIGSGGSGKSTLARQLGNKLNIKVHHLDALFWKPNWEGVPREEQITVQNNLIKDEKWIIDGNYGGTMGIRLNAADTIIFLDIHRTICVYRAFKRIVKYRNKTRPDMGAGCEERFDLQFFKWIWEYPNAKRPTILKELEQLPEEKKVIVLKSPNEVRKFLEHI”: the “soluble on expression in E. coli” value was “soluble”.

In the case of “MKKIISLALALALSASAAELKMATTTSTDNTGLLDALKPLYEKESGNTLKWVAVGTGAALKMGEDCNADVLFVHSPKAEKEFMKKGFGVDRTPVMYNDFIIIADKSLASKFKGKNLKESLELIKNEKLTFISRGDKSGTDNKEKSLWKNLGGVPEKQSWYQQSGQGMLASIKIAEEKKGVILTDRGTYIKYEANEKGKPNLVIVNEGDDSLKNFYSVIATNPKHCKNVNYTEASKFIKWVTSDKTLNFIADFKLLNKPLFVIDAKTRKD”, the “soluble on expression in E. coli” value is “not soluble”.

In the case of “MKKIRLAVIGTGMAWERLHYPAIKELEDKYEIVALCNRTRKDAEEFAKKINLSMDRVYDDYNEMLKRQDIDAVDILVPIESNYTVSEAVAKAGKDFICEKPLAANREEAKKYLELSKKYNVRIMIAENYRYSDEYNKIRDIVNSGKIGDVVYFIKNNISCFPCEMTKDTFAATEWRQHPKFYGGAFLDAAVHDIAAMRHIFGAVECVQAFGKPQAEDFNPYVSVNAHILFKNGVIGYYTYYPSGIETQKPAVGFRIFGTKGEIYLEDKTCGIINVSYHDGTSELVNFIPERGFYNELLNYYNAINGTEQISVTPEMEYGDVKMVFDILDSVSFREIIYVDEEEPKRRLEIADDEAKIHPFLQ”, the “soluble on expression in E. coli” value was “not soluble”.

For the sequence “MKKIVLYGGQFNPIHTAHMIVASEVFHELQPDEFYFLPSFMSPLKKHHDFIDVQHRLTMIQMIIDELGFGDICDDEIKRGGQSYTYDTIKAFKEQHKDSELYFVIGTDQYNQLEKWYQIEYLKEMVTFVVVNRDKNSQNVENAMIAIQIPRVDISSTMIRQRVSEGKSIQVLVPKSVENYIKGEGLYEH”, the “soluble on expression in E. coli” value is given as “soluble”.

“MKKLIIATVLASISLSASAAETIRFAAEATYPPFEFIDANNKMQGFDIDLANALCKEMQADCTFTNQAFDSLIPSLKFKRFDAVISGMDITPERQKQVAFTQPYYDNSALFIAQKDKVADLAALKGKRVGMQNGSTHQKYLMEKHPEITAVPYDSYQNAILDLKNGRLDAVFGDTAVVNEWLKQNDQLAAVGDKVTDADYFGTGLGIAVRQSNTELQGKLDAALTKVKADGTYQTIYKKWFQQ”: the “soluble on expression in E. coli” value is recorded as “not soluble”.

As for “MKKLVLIGGGYGNMRVLHRLLPNQLPDDVSITLIDRNPYHCLKTEYYALAAGTISDHHIRVSFPEHPRLDVQYGDITSIDIVQKQVLFQDREPISYDDAIIGLGCEDKYHNVPGAPEFTYSIQTIDQSRETYQKLNNLSANATVAIVGAGLSGVELASELRESRDDLNIILFDRGNLILSSFPERLSKYVQKWFEEHGVRIINRANITKVEEGVVYNHDDPISADAIVWTAGIQPNKVVRDLDVEKDAQGRIVLTPHHNLPGDEHLYVVGDCASLPHAPSAQLAEAQAEQIVQILQKRWNGEALPESMPQFKLKGVLGSTRK”, the “soluble on expression in E. coli” value is “soluble”.

Regarding “MKKMLLATALALLITGCAQQTFTVQNKQTAVAPKETITHHFFVSGIGQKKTVDAAKICGGAENVVKTETQQTFVNGLLGFITLGIYTPLEARVYCSK”, the “soluble on expression in E. coli” value is reported as “soluble”.

Regarding “MKKPIILRKRYIPDEVIDISGDELVFRSEDLLITKWNPIRKRPDISGGISFTFLKEGYKASKFFGPSGEFKYWYCDIIKVLYDEDEDKYTLVDLLLDVKIMPDGRVEVLDADELAEALKNNIISKEEACMCLSILDKILKMAYSGKFPPEICLKDY”, the “soluble on expression in E. coli” value was “soluble”.

On to “MKKPVHDMRQHIIDVARSLMTNKGYTAVGLAEVLITAGVPKGSFYYYFKSKEEFGQALLEEYFSEYLGRVDALMARPGTGAERLLAYFMYWSETQGTDLPEGKCLVVKLGAEVCDLSEDMRCVLEVGTAKIIQRISACVEMGVSDGSIHPEGDHQGFAESLYQLWLGASLLVKVNKSTESFDKALNMTKRLLK”, for which the “soluble on expression in E. coli” value was “not soluble”.

With “MKKRYKNPEKSGSCGNFIQAIKMTDKVQPLESLSKKPEEPKIVVNLRRIKRKIMVMSGKGGVGKSTVAANLAVGLALRGHRVGLLDCDIHGPTVPTIFGLESARPGVSEEGILPIEVLPNLSVMSIGFLLENKDSPIIWRGPAKMGAIKQFLEEVFWGALDFLIIDLPPGTGDEPLSVAQLIPNCDGSVLVTTPQDVALISVRKSITFSEKLNVPIIGLVDNMHGLICPHCGKPIEVFGSGGVEKASKDFNIPILARLPIEPGVAEMEDRGTVVQDQLKHGTEWQKNFDNVVDAVEKILEKELEHHHHHH”, the “soluble on expression in E. coli” value is “soluble”.

Turning to “MKKSLIAFILIFMLVLSGCGMKDNDKQGSNDNGSSKSPYHRIVSLMPSNTEILYELGLGKYIVGVSTVDDYPKDVKKGKKQFDALNLNKEELLKAKPDLILAHESQKATANKVLSSLEKQGIKVVYVKDAQSIDETYNTFKQIGKLTHHDKQAEQLVEETKDNIDKVIDSIPAHHKKSKVFIEVSSKPEIYTAGKHTFFNDMLEKLEAQNVYSDINGWNPVTKESIIKKNPDILISTEAKTRSDYMDIIKKRGGFNKINAVKNTRIEVVNGDEVSRPGPRIDEGLKELRDAIYRK”, the “soluble on expression in E. coli” value is “not soluble”.

On to “MKKTGWGILGAVAAFTGYAYWSTKHLTVTDYEILSDKIPAEWDGATFVQLSDLHSASFGLYNNPLLSIVNELAPDAVFLTGDMIDGDESPFVTMAVVRKLAKEFPVFYVSGNHEGRSAFYEDFKADMEKHHVAVLENERYFLRKDGAAIMVAGVKDPRFVRDDWAEKELPKQVWEEEALKEALDEATANLSPDYFTILLAHRPEFWPLYQAYPVDLVLSGHAHGGQFRLPLTEGLFAPGQGFMPKWTAGLHSAGGKSLIVSRGLGNVTKLPRLFNDPEIIRITLKAKGDARENLEHHHHHH”, for which the “soluble on expression in E. coli” value is listed as “not soluble”.

“MKKTTLAMSALALSLGLALSPLSATAAETSSSAMTAQQMPSLAPMLEKVMPSVVSINVEGSTTVNTPRMPRNFQQFFGDDSPFCQDGSPFQNSPFCQGGGNGGNGGQQQKFMALGSGVIIDAAKGYVVTNNHVVDNASVIKVQLSDGRKFDAKVVGKDPRSDIALIQIQNPKNLTAIKLADSDALRVGDYTVAIGNPFGLGETVTSGIVSALGRSGLNVENYENFIQTDAAINRGNSGGALVNLNGELIGINTAILAPDGGNIGIGFAIPSNMVKNLTSQMVEYGQVKRGELGIMGTELNSELAKAMKVDAQRGAFVSQVMPNSSAAKAGIKAGDVITSLNGKPISSFAALRAQVGTMPVGSKISLGLLREGKAITVNLELQQSSQSQVDSSTIFSGIEGAEMSNKGQDKGVVVSSVKANSPAAQIGLKKGDVIIGANQQPVKNIAELRKILDSKPSVLALNIQRGDSSIYLLMQ”: the “soluble on expression in E. coli” value was “not soluble”.

For the sequence “MKKVGILNSEISKIVADMGHMDTLAVVDLGFPIPQGVKKVDLVVDRGKPGLMEVIEILLRELKVERIILAKEMDEKSIQTKQELLKLIEKMNGPVEVVTVPHKEFKEMSKNVKGIIRTGADIPYSNVILVGGVIF”, the “soluble on expression in E. coli” value is “soluble”.

Values taken from the DeepSol protein solubility set.
